Assay results as given in publication PMC8173049 (2021).

Molecular target: HAdV-D26 capsid (replication-defective, E1-deleted vector particle with a GFP-luciferase fusion expression … (human adenovirus D26))
Assay: SPR

B1: human lactoferrin (natural protein)
chain: GRRRSVQWCAVSQPEATKCFQWQRNMRKVRGPPVSCIKRDSPIQCIQAIAENRADAVTLDGGFIYEAGLAPYKLRPVAAEVYGTERQPRTHYYAVAVVKKGGSFQLNELQGLKSCHTGLRRTAGWNVPIGTLRPFLNWTGPPEPIEAAVARFFSASCVPGADKGQFPNLCRLCAGTGENKCAFSSQEPYFSYSGAFKCLRDGAGDVAFIRESTVFEDLSDEAERDEYELLCPDNTRKPVDKFKDCHLARVPSHAVVARSVNGKEDAIWNLLRQAQEKFGKDKSPKFQLFGSPSGQKDLLFKDSAIGFSRVPPRIDSGLYLGSGYFTAIQNLRKSEEEVAARRARVVWCAVGEQELRKCNQWSGLSEGSVTCSSASTTEDCIALVLKGEADAMSLDGGYVYTAGKCGLVPVLAENYKSQQSSDPDPNCVDRPVEGYLAVAVVRRSDTSLTWNSVKGKKSCHTAVDRTAGWNIPMGLLFNQTGSCKFDEYFSQSCAPGSDPRSNLCALCIGDEQGENKCVPNSNERYYGYTGAFRCLAENAGDVAFVKDVTVLQNTDGNNNEAWAKDLKLADFALLCLDGKRKPVTEARSCHLAMAPNHAVVSRMDKVERLKQVLLHQQAKFGRNGSDCPDKFCLFQSETKNLLFNDNTECLARLHGKTTYEKYLGPQYVAGITNLKKCSTSPLLEACEFLRK
Work on B1 yielded a Kd of 2550 nM.
